Experimental data from US6949577B2, “Pharmaceuticals” (Pfizer, Inc., priority 2000, dated 2005).

Tested on: thrombi in the left circumflex (LCX) coronary artery
Assay: Lysis of coronary artery thrombi by TAFIa inhibitor in conjunction with t-PA
Format: in vivo, dogs
Excerpt: The study was designed with 4 groups (8 dogs/group): • (i) aspirin pre-treatment/vehicle infusion; • (ii) no pre-treatment/vehicle infusion; • (iii) no pre-treatment/TAFIa inhibitor; and • (iv) aspirin pre-treatment/TAFIa inhibitor.
Thirty minutes after initiating vehicle or compound infusion a continuous electrical current was delivered to the lumen of the left circumflex (LCX) coronary artery to cause endothelial damage and stimulate the production of a thrombus. Thrombi were allowed to mature for 1 hour prior to attempting to lyse the thrombus and cause vessel reperfusion with t-PA. A total of 4 bolus injections of t-PA (each 0.45 mg/kg i.v.) were given sequentially at 15 minute intervals. Blood flow through the coronary artery was then monitored for a further 2 hours so as to assess vessel patency. Time to vessel occlusion, and reperfusion were measured and the quantity and quality of blood flow analysed post-vessel re-perfusion. In addition, the effect of treatment on surgical bleeding, activated clotting time, cutaneous bleeding and platelet aggregation was also assessed.

B1: tPA: recombinant tissue plasminogen activator (tPA), a profibrinolytic antithrombotic (protein, UniProt P00750 36-562, looked up)
Tissue-type plasminogen …: SYQVICRDEKTQMIYQQHQSWLRPVLRSNRVEYCWCNSGRAQCHSVPVKSCSEPRCFNGGTCQQALYFSDFVCQCPEGFAGKCCEIDTRATCYEDQGISYRGTWSTAESGAECTNWNSSALAQKPYSGRRPDAIRLGLGNHNYCRNPDRDSKPWCYVFKAGKYSSEFCSTPACSEGNSDCYFGNGSAYRGTHSLTESGASCLPWNSMILIGKVYTAQNPSAQALGLGKHNYCRNPDGDAKPWCHVLKNRRLTWEYCDVPSCSTCGLRQYSQPQFRIKGGLFADIASHPWQAAIFAKHRRSPGERFLCGGILISSCWILSAAHCFQERFPPHHLTVILGRTYRVVPGEEEQKFEVEKYIVHKEFDDDTYDNDIALLQLKSDSSRCAQESSVVRTVCLPPADLQLPDWTECELSGYGKHEALSPFYSERLKEAHVRLYPSSRCTSQHLLNRTVTDNMLCAGDTRSGGPQANLHDACQGDSGGPLVCLNDGRMTLVGIISWGLGCGQKDVPGVYTKVTNYLDWIRDNMRP
- injured vessels patent at the end of the experiment (8 dogs/group, all groups received t-PA): 2/8
- blood flow post-reperfusion (FIG. 1) (dogs, t-PA 4 x 0.45 mg/kg i.v. boluses, comparison of treatment groups): superior to the combination of tPA and aspirin
